Columns and labels:
Experiment in all cases: MST; CD99-Fc labelled with RED-NHS 2nd generation, in PBS/0.005% Tween-20; GDF6 prodomain from transfected 293T cells serially diluted in Opti-MEM; 30 minutes at room temperature; Monolith NT.115
Settings in all cases: one partner purified
[1] = target: T1, GDF6 prodomain (residue 1 - 335) (UniProt Q6KF10 23-335)
T1 construct: signal peptide in the construct; GDF6 (BMP13) prodomain, residue 1-335; Construct of the microscale thermophoresis; no tag and no purification are stated; also called wild-type GDF6 prodomain
T1 sequence (looked up): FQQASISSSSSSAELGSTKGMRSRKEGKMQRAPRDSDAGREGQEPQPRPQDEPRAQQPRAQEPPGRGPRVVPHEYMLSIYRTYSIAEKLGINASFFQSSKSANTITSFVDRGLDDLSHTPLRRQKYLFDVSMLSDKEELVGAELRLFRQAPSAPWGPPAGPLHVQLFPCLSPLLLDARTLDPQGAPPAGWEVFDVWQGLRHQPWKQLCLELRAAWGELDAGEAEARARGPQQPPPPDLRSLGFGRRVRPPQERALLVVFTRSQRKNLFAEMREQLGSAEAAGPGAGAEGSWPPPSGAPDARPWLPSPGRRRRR

GDF6 A249E prodomain = target: T2, GDF6 A249E prodomain (UniProt Q6KF10 23-335, A249E)
T2 construct: signal peptide in the construct; GDF6 prodomain with the Klippel-Feil syndrome mutation A249E; limits as stated for the wild type in the same sentence (residue 1-335); Construct of the microscale thermophoresis; mutation recurrent in Klippel-Feil syndrome patients
T2 sequence (looked up): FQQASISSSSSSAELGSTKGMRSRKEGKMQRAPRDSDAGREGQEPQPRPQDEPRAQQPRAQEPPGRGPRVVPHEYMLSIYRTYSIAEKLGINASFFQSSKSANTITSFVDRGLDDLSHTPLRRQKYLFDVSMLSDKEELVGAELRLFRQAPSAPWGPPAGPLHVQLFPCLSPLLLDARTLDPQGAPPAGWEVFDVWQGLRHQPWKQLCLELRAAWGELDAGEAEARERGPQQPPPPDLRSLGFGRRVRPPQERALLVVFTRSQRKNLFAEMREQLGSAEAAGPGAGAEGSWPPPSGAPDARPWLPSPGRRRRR

GDF6 L289P prodomain = target: T3, GDF6 L289P prodomain (UniProt Q6KF10 23-335, L289P)
T3 construct: signal peptide in the construct; GDF6 prodomain with the Klippel-Feil syndrome mutation L289P; limits as stated for the wild type in the same sentence (residue 1-335); Construct of the microscale thermophoresis; mutation recurrent in Klippel-Feil syndrome patients
T3 sequence (looked up): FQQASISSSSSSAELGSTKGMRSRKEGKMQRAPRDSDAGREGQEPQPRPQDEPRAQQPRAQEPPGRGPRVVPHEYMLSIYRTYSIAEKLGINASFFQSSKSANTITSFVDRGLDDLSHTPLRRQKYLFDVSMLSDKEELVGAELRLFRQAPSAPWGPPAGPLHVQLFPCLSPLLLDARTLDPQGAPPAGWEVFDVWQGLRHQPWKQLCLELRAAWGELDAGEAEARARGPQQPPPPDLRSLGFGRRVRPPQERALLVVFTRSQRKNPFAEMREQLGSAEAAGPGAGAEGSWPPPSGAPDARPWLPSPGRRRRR

B1: Recombinant human CD99-Fc fusion protein (residue 23 - 122) (Fc fusion, UniProt P14209 23-122, looked up)
chain: DGGFDLSDALPDNENKKPTAIPKKPSAGDDFDLGDAVVDGENDDPRPPNPPKPMPNPNPNHPSSSGSFSDADLADGVSGGEGKGGSDGGGSHRKEGEEAD
modifications: RED-NHS 2nd generation dye, amine reactive (labelled for the microscale thermophoresis only)
notes: The source is stated for the MST; the protein A Sepharose pull-down names the same limits and tag but no source; source: bought: R&D Systems (3968-CD-050); not shown: Fc, C-terminal, kept
Kd [1]: 17.2 nM | Kd (GDF6 A249E prodomain): 3.34 nM | Kd (GDF6 L289P prodomain): 2.26 nM
